Experimental data taken from publication PMC3098740 (Biochemistry, 2010).

Biological target: T1, Methyl-coenzyme M reductase (MCR) subunit α (Methanothermobacter marburgensis …, UniProt P11558 1-550)
T1 sequence (looked up): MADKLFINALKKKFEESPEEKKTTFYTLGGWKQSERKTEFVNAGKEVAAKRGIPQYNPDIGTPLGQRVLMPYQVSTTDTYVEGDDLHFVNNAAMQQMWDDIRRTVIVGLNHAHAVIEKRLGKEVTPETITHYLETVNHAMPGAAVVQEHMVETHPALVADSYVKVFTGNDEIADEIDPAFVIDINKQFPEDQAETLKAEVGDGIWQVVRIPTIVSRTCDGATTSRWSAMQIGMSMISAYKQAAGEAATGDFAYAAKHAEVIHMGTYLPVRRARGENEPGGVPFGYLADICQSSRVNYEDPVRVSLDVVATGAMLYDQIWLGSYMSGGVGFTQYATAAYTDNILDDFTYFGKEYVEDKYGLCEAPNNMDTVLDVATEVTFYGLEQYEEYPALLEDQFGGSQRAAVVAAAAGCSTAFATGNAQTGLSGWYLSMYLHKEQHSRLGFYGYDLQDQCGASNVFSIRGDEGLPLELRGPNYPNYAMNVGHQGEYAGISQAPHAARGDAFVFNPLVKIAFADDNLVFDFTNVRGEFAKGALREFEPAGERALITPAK
Assay: crystal structure

B1: Methyl-coenzyme M reductase (MCR) subunit β (natural protein, UniProt P11560 1-443, looked up)
chain: MAKFEDKVDLYDDRGNLVEEQVPLEALSPLRNPAIKSIVQGIKRTVAVNLEGIENALKTAKVGGPACKIMGRELDLDIVGNAESIAAAAKEMIQVTEDDDTNVELLGGGKRALVQVPSARFDVAAEYSAAPLVTATAFVQAIINEFDVSMYDANMVKAAVLGRYPQSVEYMGANIATMLDIPQKLEGPGYALRNIMVNHVVAATLKNTLQAAALSTILEQTAMFEMGDAVGAFERMHLLGLAYQGMNADNLVFDLVKANGKEGTVGSVIADLVERALEDGVIKVEKELTDYKVYGTDDLAMWNAYAAAGLMAATMVNQGAARAAQGVSSTLLYYNDLIEFETGLPSVDFGKVEGTAVGFSFFSHSIYGGGGPGIFNGNHIVTRHSKGFAIPCVAAAMALDAGTQMFSPEATSGLIKEVFSQVDEFREPLKYVVEAAAEIKNEI
binding result: binds
